{"source": "patent US20210330740A1", "about": "(RUN X, published 2021)", "binders": {"B1": {"name": "modified protein in which the 356th serine of Runx3 is substituted with alanine (other, UniProt Q13761 1-415, looked up)", "chain": "MRIPVDPSTSRRFTPPSPAFPCGGGGGKMGENSGALSAQAAVGPGGRARPEVRSMVDVLADHAGELVRTDSPNFLCSVLPSHWRCNKTLPVAFKVVALGDVPDGTVVTVMAGNDENYSAELRNASAVMKNQVARFNDLRFVGRSGRGKSFTLTITVFTNPTQVATYHRAIKVTVDGPREPRRHRQKLEDQTKPFPDRFGDLERLRMRVTPSTPSPRGSLSTTSHFSSQPQTPIQGTSELNPFSDPRQFDRSFPTLPTLTESRFPDPRMHYPGAMSAAFPYSATPSGTSISSLSVAGMPATSRFHHTYLPPPYPGAPQNQSGPFQANPSPYHLYYGTSSGSYQFSMVAGSSSGGDRAPTRMLASCTSSAASVAAGNLMNPSLGGQSDGVEADGSHSNSPTALSTPGRMDEAVWRPY", "notes": "also called Runx3 S356A; RUNX3 S356A"}}, "biological_target": "T1, BRD2 (Bromodomain-containing protein 2) (UniProt P25440 1-801, limits assumed)", "T1 construct": "also called Brd2 protein", "T1 sequence (P25440 whole entry)": "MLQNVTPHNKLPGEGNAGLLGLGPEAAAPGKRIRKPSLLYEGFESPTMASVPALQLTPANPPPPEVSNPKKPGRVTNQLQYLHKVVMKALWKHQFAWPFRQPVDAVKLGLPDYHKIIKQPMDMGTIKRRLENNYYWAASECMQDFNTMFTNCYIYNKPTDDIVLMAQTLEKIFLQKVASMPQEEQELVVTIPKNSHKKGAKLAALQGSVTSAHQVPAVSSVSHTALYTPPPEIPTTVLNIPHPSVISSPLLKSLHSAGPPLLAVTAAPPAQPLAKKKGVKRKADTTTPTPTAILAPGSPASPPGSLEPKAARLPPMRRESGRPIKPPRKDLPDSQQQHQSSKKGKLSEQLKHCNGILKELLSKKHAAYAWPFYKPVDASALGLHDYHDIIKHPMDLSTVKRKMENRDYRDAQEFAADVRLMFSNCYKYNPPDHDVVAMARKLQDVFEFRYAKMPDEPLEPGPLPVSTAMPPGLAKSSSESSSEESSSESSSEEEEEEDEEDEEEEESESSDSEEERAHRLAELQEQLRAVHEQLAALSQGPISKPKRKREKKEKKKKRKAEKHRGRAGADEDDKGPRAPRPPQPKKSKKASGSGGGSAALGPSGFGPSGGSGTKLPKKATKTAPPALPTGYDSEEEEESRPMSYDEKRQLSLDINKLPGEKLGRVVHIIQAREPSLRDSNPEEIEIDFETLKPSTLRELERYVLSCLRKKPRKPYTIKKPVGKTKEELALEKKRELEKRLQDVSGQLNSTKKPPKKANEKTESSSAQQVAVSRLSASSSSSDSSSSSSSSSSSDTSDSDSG", "experiment": "co-immunoprecipitation and immunoblotting, time course", "experimental": "Particularly, the antibody targeting RUNX3 (5G4) (Cat #ab40278) was obtained from Abcam (Cambridge, UK), and the antibody was diluted 1:3000. BRD2 (M01; 1:1000; Cat #H00006046-M01, Abnova, Taipei City, Taiwan) was used for immunoblotting and immunoprecipitation. Transient transfection was performed in all cell lines using lipofectamine plus reagent and lipofectamine (Invitrogen). Cell lysates were incubated with an appropriate monoclonal or polyclonal antibody (2 μg of antibody/500 μg of lysate sample) at 4° C. for 3 hours, followed by incubation with protein G-Sepharose beads (Amersham Pharmacia Biotech, Piscataway, N.J., USA). For the detection of endogenous proteins at 4° C. for 1 hour, the lysate was incubated with an appropriate monoclonal or polyclonal antibody (1:1000˜1:3000) at 4° C. for 6 to 12 hours, and then protein G-Sepharose beads (Amersham Pharmacia Biotech) were […] at 4° C. for 3 hours. The immune precipitate was digested on SDS-polyacrylamide gel electrophoresis (SDS-PAGE) gel and transferred to a PVDF membrane (Millipore, Billerica, Mass., USA). The membrane was blocked, immunoblotted with an appropriate antibody, treated with ECL solution (Amersham Pharmacia Biotech), and visualized in Amersham™ Imager 600 (GE Healthcare, Chicago, Ill., USA).", "data": [{"binder": "B1", "values": [{"measurement": "complex maintenance activity, fold against wild-type Runx3", "value": "≥ 10", "unit": "times"}]}]}
